The values that follow come from the DeepSol protein solubility set.

A short description of this series: soluble on expression in E. coli; label from the status in PepcDB or PDB records.
Regarding “MPSADVLIIGSGIAALRVAKEICHEKNVIIITKETNRNNNTHLAQGGIAAAVATYDNPNDHFEDTLVAGCRYNNEDVVRYLVEEGPKEMKNLIENGMQFDGDETGPHLGKEGAHRKRRILHAGGDATGKNLLEHFIQEVVPHVTVVEQEMVLDFIIESEKCVGVLTRNSEGKLKRYDADYTVLASGGVGGLYAFTSNDKTITGDGLAMVYRAGGELVDLEFVQFHPTMLYAGGQCCGLVSEAVRGEGAVLINGKGQRFMMDIHDDYDLAPRDVVARAIHEQLLSGEKVYLNIGSIQNFQERFPTVSALCKKNGVDITKKRIPVVPGAHFHMGGVKTNIDGETSIPNLYAVGEVACNGVHGANRLASNSLLEGLVFGKRIGQHILTKATKDKLNDFAEKEKKFIVLNHLPTKEEIQECMMKYVGIVRTEQSLSYAKRWLSKYGVRNMILQHDALTNEEITLINMLTVCELIVVSALQREESIGGHYRSDYPHRNSAQKEIIRVKRKLQLV”, the “soluble on expression in E. coli” value is on record as “not soluble”. The entry for “MPSPMSTLTTYSEPRGSTTYTLPAMEPSVSRLDTDMNSGLMPRYIFLTPLDSITLLASSGTLLEKPGQDIQRSSPTDSTSHSTRFIGGAPMKVATNVCFGLM” is “not soluble”; for “MPSYKLSYFPVRGLAESARLLFHLAGVPFEDERVNFLDDTWEKMKGKTPMGQLPVLTVDDFEIPQSAAINRYLARKFGFAGKTPEEEAWVDAVVDQFKDFFAEFRKLVIAKRVGKSAEELEKLTAEVIKPAMDVYFKVLNGLLEKSKSGYLIGDSITFADLYIADNIQTLKKYGLLEASGEQPKLAAHLEKVYSHPNLKSYIASRPVTEI” it is “not soluble”; for “MPTPFDVTILGGGLAGRLCAWQLAQTGVPPARIAVVERGARDGSGSAAYVAAAMLAPLAEAAVADRFVVELGLASLTLWRDWLPMLRTPVFFQQAGTLVVWHPADRGEASLFANHVRAATPPERIAADLRAVDAEGIGTLEPALAQRFSQGLYLAGEGQLDNRAVLDALATELEALGVQLRWNTAVADPHPQALAAAGLGARLVLDCRGLGAQPQWPQLRGLRGEVARIHAPDVTLTRPVRMLHPRYPIYIAPKPGHVYVIGATEIESDDMSPVSVRSTLELLSAAYAVHPAFGEARVLELCTQCRPTLPDHRPAIRWDGAGTLSVNGLYRHGYMIAPAVAQAAVAAAHALLDGRAIDAPASAWPGLFAAPASPEPVLPLEHHHHHH” it is “soluble”. Regarding “MPVAKDNQFWDALMENKVAKKLIKKHKCKAKCENIDDLANRYEVSKQEVEKVFKIFQLMDDDGSGTISSSEVAKMLNELGIDVSPKVVQAVMRSSDVSGDGQIDFEEFLAAVTSKIKLSTVKADVQLMLSKIDNNPEKVVSWGIEHLMIIFCEEPLKSCYYRLALTAGCTIICGYLWF”, the “soluble on expression in E. coli” value is given as “not soluble”. Then “MPVDKNLRDLEPGIHTDLEGRLTYGGYLRLDQLLSAQQPLSEPAHHDEMLFIIQAQTSELWLKLLAHELRAAIVHLQRDEVWQCRKVLARSKQVLRQLTEQWSVLETLTPSEYMGFRDVLGPSSGFQSLQYRYIEFLLGNKNPQMLQVFAYDPAGQARLREVLEAPSLYEEFLRYLARFGHAIPQQYQARDWTAAHVADDTLRPVFERIYENTDRYWREYSLCEDLVDVETQFQLWRFRHMRTVMRVIGFKRGTGGSSGVGFLQQALALTFFPELFDVRTSVGVDNRPPQGSADAGKRLEHHHHHH”, with “soluble”; and “MPVFVKLTGGSIGLQAGVQSSDVVLVFRNDRNLDNIVNGKFTLGADASVAAGPVGRNALAATDSELKAEIYSWSTARGLFAGIALDGAALQIDDSANLDVYGKGTTPRMIFEGRTAEPPSSDVIAFRDRLEEVTYTARNNLEHHHHHH”, with “soluble”.

Consider “MPVITILGCRMFEDEIMHLLENDPEIEEVLVVENEDCVGIMKKMAEAGLAYTALSPEKIPEKSSETGKGLTLIVYMLELALHAIPENLKKTVYSKVELMSSCSDGILLFYGLCGNVLGKIEEDFKDLGCQVCILKEENGEIVDDCIGAVLGGRKQYLEVLKSCRGVGTFFLTPMWAVNWREMIRTSGLSQNPDDISMSKFVFDYAGYKRVARLDTGLAYEKDFDACVKEFSTLFEFEVTELEGTLHLIENCYAKTKASVFEACPRSQALEHHHHHH”, for which the “soluble on expression in E. coli” value is “soluble”. “MPVNATGVSFSSFGISYHKDNSFRGTIRGKNDEVVKCSMGERSIRFNVNKFSGCILETVSRQSTKDIHGWVSDERTVYPSRVINQEIDNCCLQKNAKISSEERKMVFSLVSKEFELTLDVKAAQSSINHIIIGNASFGKKMDALCDGMSRAVKNSTTDYIANVLADKFYQKHIAPGVDIVKLRNEIPGYMSRVIQG”: the “soluble on expression in E. coli” value is “not soluble”. The entry for “MPVVKSIYSSLKSFADYFSPSAKTSSQQVVILRMPGNPLELVGLVTRRTLEGLPDGFTQGDRVAVYLPMGYMIGGYTVFVPTEWVHPIQMSVEEAMRSSLIAWMARLEHHHHHH” is “not soluble”; for “MPVYFTKRAFLPDGWAADVQIAVDELGDIQRISTGSSSSGCQVLSGPVLPGMPNLHSHAFQRMMSGLAEVAGDPQDSFWTWRDLMYRLVQQLTPEQVGVIARQLYIEMLKGGYTQVAEFHYLHHSPDGSPYNDIGEMTAQLSQAAQDAGIGMTLLPVLYSYAGFGAQPAQQGQSRFIQDTESYLRQQQVIRRQLANQPLQNQGLCFHSLRAVELSQMQQILHVSDKQLPVHIHIAEQQKEVNDCLAWCGQRPVAWLYGHLPVDSRWCLVHATHLDTSELVMLANSQAVAGLCPTTEANLGDGIFPGVDYIHHQGRWGIGSDSHVSLDVVEELRWLEYGQRLRDQRRNRLTCERQPAVADLLYSQALAGGRQACGRQISQLAVGYRADWLVLDGDDPYIAGTRSASLLNRWLFAGGKSQIRDVYVAGKAVIVDRYHPLQQQTAQAFLAVLKACQQEV” it is “not soluble”; for “MPYSSSGVGHNGFDKADLHIHTKCSDGLFTPEEIVHKAIHVGLKAISITDHDTVTGIDQAKPLALELGLELIPGVEMSSAYKGYDIHILGYFFDYQQSELKGYLDHCRLLRTERAERMVQKLAKMGVKIEIEQIIMKAQNGSVGRPHIAAVLQDEGFVKSFSEAFSKYLGSHSPAYVKSIETHPEEVIRLINEAGGLSFLAHPAQNVPDEILRQLISFGLDGLEIIHPSHDTYRQNYYREIANEYFLLFSGGSDYHGPKDHEDNFGQVWIPYEWVTKMKSRLAPAVKE” it is “not soluble”. The entry for “MQAKIAASNTGELDALQQLGFSLVEGEVDLALPVNNASDSGAVVAQETDIPALRQLASAAFAQSRFRAPWYAPDASSRFYAQWIENAVRGTFDHQCLILRAASGDIRGYVSLRELNATDARIGLLAGRGAGAELMQTALNWAYARGKTTLRVATQMGNTAALKRYIQSGANVESTAYWLYR” is “not soluble”. Then “MQDFKKLPTVLTAEELIDKIFRRAARVEGRNPKEKALNKLATISNVSRDYFGKIIGAHPSYENLPDFYREMVDVVVGIRQLKKSLVALKWADGMIQKVVSRAVREVKGGKNPSAVVKSAYGRVASIIEQIDDELRFLNDAKNRMREIPILQDLPTIVVAGYPNVGKSSLVARISTVKPEVASYPFTTKKINLGFAEFAGKRVQIIDTPGLLDRPLSKRNRIERRAVLALKHLADIILFVIDPTETCGYSLEKQLSLLEEIKGYFAKPTVEVYSKADMHDRRDRQAYSAVTGEGIDELIKEIEKMVKIHSQTSTVIAPSGQTSTQEQHSAAALEHHHHHH”, with “not soluble”; and “MQEAVNSALPGDVIIVKPGSYYDHVTVTTNNLVIRSESGNPEDTVIEGYNPTADVFTIEADNITLEGFTIMGAGANCSGLCLHGCTNCLIDSNTFFNDFRGIYLKSSLNNDILNNIVIKGGRGISIEESNHNSVSKNKVSECGYGINLLNSKDNRISKNTVAGNKDYGILVQSSDSNTFSRNNASENGRGIHIGNSDGNTLSNNKISLNEVHGLFVCPKSDKNLVYNNYFSNTLNVEANNGTSNVYHKSRTKGENIVGGPYIGGNYWATPEGSGFSETAADNNGDGIADEKYLFETSDYFDPLPLIAYKPPEPVLPTANLSINTPEDYAPLSVQFTDLSENATSRTWDFENDGVIDSPDETPVYTYPSPGTYTVNLTAACENGTDTKLITINVGENNVAEIQPESAPGEESMSTTGSQAEQNSEQEGISSIPGFEMLYGIFCLLAIFLYKESTKLEHHHHHH”, with “not soluble”; and “MQEKPQEPKVVGVEILEKSGLDIKKLVDKLVKATAAEFTTYYYYTILRMHLTGMEGEGLKEIAEDARLEDRLHFELMTQRIYELGGGLPRDIRQLADISACSDAYLPENWKDPKEILKVLLEAEQCAIRTWKEVCDMTYGKDPRTYDLAQRILQEEIEHEAWFLELLYGRPSGHFRRSSPGNAPYSKK”, with “soluble”.

As to “MQEYTNHSDTTFALRNISFRVPGRTLLHPLSLTFPAGKVTGLIGHNGSGKSTLLKMLGRHQPPSEGEILLDAQPLESWSSKAFARKVAYLPQQLPPAEGMTVRELVAIGRYPWHGALGRFGAADREKVEEAISLVGLKPLAHRLVDSLSGGERQRAWIAMLVAQDSRCLLLDEPTSALDIAHQVDVLSLVHRLSQERGLTVIAVLHDINMAARYCDYLVALRGGEMIAQGTPAEIMRGETLEMIYGIPMGILPHPAGAAPVSFVY”, the “soluble on expression in E. coli” value is “soluble”. Take “MQFLQKFPPFNQMENAHLAYLVEQCQLRFYAADESIIKPGDGPVEHFYIVKQGRIVGERPHSAKRGTETTFEITTGECFPLAALLGERATRTEHLAAEDTFCLQLNKQAFIKLFALSTTFRDFALRGVSSLLDQVNQQVQQRAAETLGTQYSLNTRLGELAMRHPVMCSPDMPMRDAVKLMHEQQVGSIVIVDEQQAPLGIFTLRDLREAVADVNADFSAPVKNTMSPSPFHLSPDASAFDAAIAMTGRHIAHVCLVRDGRLCGVVSERDLFSLQRVDLVHLARTIRNAPRIEALAGLRGDIVQLVDRMLAHGASSTQITQIITLLNDHTVCRVIELTLAEKGDPGVPFSWLCFGSEGRREQTLHTDQDNGILFEASDATEAEQIRTLLLPIAERINQSLAQCGFTLCKGNIMAGNPDLCLSRLEWSRRFSAFIREATPENLLASSIYFDLRVVWGDESGGGQLRRGILDQVADNRLFQRMMAENALRQRPPVGRFKDFVLARKGSEKDTLDLKTEGLTPFVDGARLLALANGIGVNNTQERLRQLVEREVIDPLDGAAYEEAYHFIQQTRMQQHQLQSRQNLAYSNRIDPDTLNHLDRRILRESFRQAQRLQMSLTMRYQL”: the “soluble on expression in E. coli” value is listed as “not soluble”.

In the case of “MQFPVLQESSQSALPQLTGILSSLIVTEEVKAAETDAIMAANTGKSEIVQVTYKLFGLIPFKSSAIQVMPQLKLLPGGQSIGVSLQAKGVMVVGQAAVQNQEGKLVYPAKEAGIEVGDIILKIDGREMNSDQDVANAIHRAGEKQGFSEILLNHNGQTMQKRVSTVYCPETNRHRVGLYVRNEAAGVGTLTFYDPTNHKYGALGHVINDVDTNQKIEILNGNVVASTIYAIEKGKRGHPGEKIGSFVNQSKFSGNIEKNTVSGIFGSLEGEIKNPYFQEPITVGWESEIKEGPAKIYTVLEGERIEEYDVQIERIMHNRTDSKNMVIKVTDPELVEKTGGIIQGMSGSPIVQDGKIIGAVTHVFVNDASRGYGVFIQNMLKDADIIDKKEVALEHHHHHH”, the “soluble on expression in E. coli” value was “not soluble”. Then “MQFSLVIPVYNAGMMWPEVIRSIKSQTIQPECVIIIDSSSTDNTVAYATEAGFEVYHIDKSTFDHGGTRSMALERVNTEFVIYMTQDAILQNDEAFFYLLSAFNNEEVGAVYGRQLPHHDANPLATHARLHSYGEVGYVTSMKDDFPQGFRKAFMSNSFSGYRVSTLRQIGGFPAKLILGEDSYVAARMLSTGVSVGYIPQALARHSHNYSVGEEFKRYFDIGVFHKTQEWMLASLGKVEGEGVKFALGQICYLLKSNYYHYIPFSIASSGAKYLGYKLGKNYHRLNRTLCKKLSMYKSYWNSSVLEHHHHHH”, with “soluble”.
